Assay results taken from patent US20150010591A1 (UNIVERSITY OF BRITISH COLUMBIA, published 2015).

Experiments:
Test in all cases: peptide eluted from immunoaffinity-purified MHC class II of infected C57BL/6 BM-DCs, LC-MS/MS
[1] = target: T1, […], peptide of C. trachomatis Predicted D-Amino Acid Dehydrogenase (CT375) (Chlamydia trachomatis)
T1 construct: also called CT375 peptide

[2] = target: T2, …, peptide of C. trachomatis Muramidase (invasin repeat family) (CT759) (Chlamydia trachomatis)
T2 construct: also called NlpD peptide

[3] = target: T3, …, peptide of C. trachomatis Hypothetical protein CT144 (Chlamydia trachomatis)
T3 construct: also called CT144 peptide

[4] = target: T4, IPFAKPDANLSAED, peptide of C. trachomatis Hypothetical protein CT619 (Chlamydia trachomatis)
T4 construct: also called CT619 peptide

[5] = target: T5, …, peptide of C. trachomatis Hypothetical protein CT837 (Chlamydia trachomatis)
T5 construct: also called CT837 peptide

[6] = target: T6, …, peptide of C. trachomatis Dihydrolipoamide acetyltransferase (CT247) (Chlamydia trachomatis)
T6 construct: also called PdhC peptide

[7] = target: T7, …, peptide of C. trachomatis FHA domain; homology to adenylate cyclase (CT664) (Chlamydia trachomatis)
T7 construct: also called CT664 peptide

[8] = target: T8, …, peptide of C. trachomatis Hypothetical protein CT289 (Chlamydia trachomatis)
T8 construct: also called CT289 peptide

[9] = target: T9, …, peptide of C. trachomatis CHLPN 76kDa Homolog (CT622) (Chlamydia trachomatis)
T9 construct: also called CT622 peptide

[10] = target: T10, …, peptide of C. trachomatis Hypothetical protein CT472 (Chlamydia trachomatis)
T10 construct: also called CT472 peptide

[11] = target: T11, …, peptide of C. trachomatis Sigma Regulatory factor (CT424) (Chlamydia trachomatis)
T11 construct: also called RsbV peptide

[12] = target: T12, …, peptide of C. trachomatis Hypothetical protein CT143 (Chlamydia trachomatis)
T12 construct: also called CT143 peptide

Measured: binding result

B1: MHC class II (I-Ab) molecules of bone marrow derived dendritic cells from C57BL/6 mice (receptor)
MHC II alpha: EDDIEADHVGTYGISVYQSPGDIGQYTFEFDGDELFYVDLDKKETVWMLPEFGQLASFDPQGGLQNIAVVKHNLGVLTKRSNSTPATNEAPQATVFPKSPVLLGQPNTLICFVDNIFPPVINITWLRNSKSVADGVYETSFFVNRDYSFHKLSYLTFIPSDDDIYDCKVEHWGLEEPVLKHWEPEIPAPMSELTETVVCALGLSVGLVGIVVGTIFIIQGLRSGGTSRHPGPL
MHC II beta: GDSERHFVYQFMGECYFTNGTQRIRYVTRYIYNREEYVRYDSDVGEHRAVTELGRPDAEYWNSQPEILERTRAELDTVCRHNYEGPETHTSLRRLEQPNVVISLSRTEALNHHNTLVCSVTDFYPAKIKVRWFRNGQEETVGVSSTQLIRNGDWTFQVLVMLEMTPRRGEVYTCHVEHPSLKSPITVEWRAQSESAWSKMLSGIGGCVLGVIFLGLGLFIRHRSQKGPRGPPPAGLLQ
notes: whole, on cells; also called MHC class II molecules
binds: [1] | [2] | [3] | [4] | [5] | [6] | [7] | [8] | [9] | [10] | [11] | [12]
